Laboratory results from patent publication EP4692114A1, “CALCITONIN ANALOGUE, AND DERIVATIVE THEREOF AND USE THEREOF” (Hangzhou Sciwind Biosciences Co., Ltd., priority 2023, dated 2024).
*1 amine or outer side, *2 acyl side, *3 side chain or, on linkers, in order; H or OH if unused. Primed or numbered codes have the meaning given here. The star is where a group is joined. C20 diacid = O=C(O)CCCCCCCCCCCCCCCCCCC(=O)*; C18 diacid = O=C(O)CCCCCCCCCCCCCCCCC(=O)*; γGlu = O=C(O)[C@H](CCC(=O)[*:2])N[*:1]; Inp′ = not defined here; AEEA = NCCOCCOCC(=O)O

T1: human amylin receptor (AMY3) on CHO-K1/Gal5/AMY3 cells (human, UniProt P30988 25-474; O60896 24-148)
T1 sequence (looked up) 1: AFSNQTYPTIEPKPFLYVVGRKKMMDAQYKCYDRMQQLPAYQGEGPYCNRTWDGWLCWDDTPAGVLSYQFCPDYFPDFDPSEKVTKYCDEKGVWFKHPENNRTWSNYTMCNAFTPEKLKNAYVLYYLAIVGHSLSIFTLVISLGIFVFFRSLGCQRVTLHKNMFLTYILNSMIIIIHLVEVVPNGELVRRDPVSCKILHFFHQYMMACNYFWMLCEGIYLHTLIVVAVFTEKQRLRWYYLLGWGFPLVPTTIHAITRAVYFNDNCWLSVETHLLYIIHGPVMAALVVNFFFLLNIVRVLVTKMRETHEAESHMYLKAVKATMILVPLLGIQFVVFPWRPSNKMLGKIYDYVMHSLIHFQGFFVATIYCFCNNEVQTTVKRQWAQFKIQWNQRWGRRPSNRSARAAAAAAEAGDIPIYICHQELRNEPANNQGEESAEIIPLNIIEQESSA
T1 sequence (looked up) 2: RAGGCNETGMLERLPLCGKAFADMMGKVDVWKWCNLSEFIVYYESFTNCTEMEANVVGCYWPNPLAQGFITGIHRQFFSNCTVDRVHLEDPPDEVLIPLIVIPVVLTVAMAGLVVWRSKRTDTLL

B1: calcitonin derivative M64 (peptide)
peptide: {C20 diacid-γGlu-AEEA-AEEA-AEEA-AEEA-AEEA-AEEA}-ASQLSTAVLGRLSEELHRLQDYPRTDVGSGSP-NH2
SMILES: CC(C)C[C@H](NC(=O)[C@H](CCCNC(=N)N)NC(=O)CNC(=O)[C@H](CC(C)C)NC(=O)[C@@H](NC(=O)[C@H](C)NC(=O)[C@@H](NC(=O)[C@H](CO)NC(=O)[C@H](CC(C)C)NC(=O)[C@H](CCC(N)=O)NC(=O)[C@H](CO)NC(=O)[C@H](C)NC(=O)COCCOCCNC(=O)COCCOCCNC(=O)COCCOCCNC(=O)COCCOCCNC(=O)COCCOCCNC(=O)COCCOCCNC(=O)CC[C@H](NC(=O)CCCCCCCCCCCCCCCCCCC(=O)O)C(=O)O)[C@@H](C)O)C(C)C)C(=O)N[C@@H](CO)C(=O)N[C@@H](CCC(=O)O)C(=O)N[C@@H](CCC(=O)O)C(=O)N[C@@H](CC(C)C)C(=O)N[C@@H](Cc1c[nH]cn1)C(=O)N[C@@H](CCCNC(=N)N)C(=O)N[C@@H](CC(C)C)C(=O)N[C@@H](CCC(N)=O)C(=O)N[C@@H](CC(=O)O)C(=O)N[C@@H](Cc1ccc(O)cc1)C(=O)N1CCC[C@H]1C(=O)N[C@@H](CCCNC(=N)N)C(=O)N[C@H](C(=O)N[C@@H](CC(=O)O)C(=O)N[C@H](C(=O)NCC(=O)N[C@@H](CO)C(=O)NCC(=O)N[C@@H](CO)C(=O)N1CCC[C@H]1C(N)=O)C(C)C)[C@@H](C)O
B2: calcitonin derivative M16 (peptide)
peptide: {C20 diacid-γGlu}-ASQLSTAVLGRLSQELHRLQDYPRTDSGSGSP-NH2
SMILES: CC(C)C[C@H](NC(=O)[C@H](CCCNC(=N)N)NC(=O)CNC(=O)[C@H](CC(C)C)NC(=O)[C@@H](NC(=O)[C@H](C)NC(=O)[C@@H](NC(=O)[C@H](CO)NC(=O)[C@H](CC(C)C)NC(=O)[C@H](CCC(N)=O)NC(=O)[C@H](CO)NC(=O)[C@H](C)NC(=O)CC[C@H](NC(=O)CCCCCCCCCCCCCCCCCCC(=O)O)C(=O)O)[C@@H](C)O)C(C)C)C(=O)N[C@@H](CO)C(=O)N[C@@H](CCC(N)=O)C(=O)N[C@@H](CCC(=O)O)C(=O)N[C@@H](CC(C)C)C(=O)N[C@@H](Cc1c[nH]cn1)C(=O)N[C@@H](CCCNC(=N)N)C(=O)N[C@@H](CC(C)C)C(=O)N[C@@H](CCC(N)=O)C(=O)N[C@@H](CC(=O)O)C(=O)N[C@@H](Cc1ccc(O)cc1)C(=O)N1CCC[C@H]1C(=O)N[C@@H](CCCNC(=N)N)C(=O)N[C@H](C(=O)N[C@@H](CC(=O)O)C(=O)N[C@@H](CO)C(=O)NCC(=O)N[C@@H](CO)C(=O)NCC(=O)N[C@@H](CO)C(=O)N1CCC[C@H]1C(N)=O)[C@@H](C)O
B3: calcitonin derivative M30 (peptide)
peptide: {C20 diacid-γGlu}-SSQLSTAVLGRLSQELHRLQDYPRTDVGSGSP-NH2
SMILES: CC(C)C[C@H](NC(=O)[C@H](CCCNC(=N)N)NC(=O)CNC(=O)[C@H](CC(C)C)NC(=O)[C@@H](NC(=O)[C@H](C)NC(=O)[C@@H](NC(=O)[C@H](CO)NC(=O)[C@H](CC(C)C)NC(=O)[C@H](CCC(N)=O)NC(=O)[C@H](CO)NC(=O)[C@H](CO)NC(=O)CC[C@H](NC(=O)CCCCCCCCCCCCCCCCCCC(=O)O)C(=O)O)[C@@H](C)O)C(C)C)C(=O)N[C@@H](CO)C(=O)N[C@@H](CCC(N)=O)C(=O)N[C@@H](CCC(=O)O)C(=O)N[C@@H](CC(C)C)C(=O)N[C@@H](Cc1c[nH]cn1)C(=O)N[C@@H](CCCNC(=N)N)C(=O)N[C@@H](CC(C)C)C(=O)N[C@@H](CCC(N)=O)C(=O)N[C@@H](CC(=O)O)C(=O)N[C@@H](Cc1ccc(O)cc1)C(=O)N1CCC[C@H]1C(=O)N[C@@H](CCCNC(=N)N)C(=O)N[C@H](C(=O)N[C@@H](CC(=O)O)C(=O)N[C@H](C(=O)NCC(=O)N[C@@H](CO)C(=O)NCC(=O)N[C@@H](CO)C(=O)N1CCC[C@H]1C(N)=O)C(C)C)[C@@H](C)O

Molecular target: T1, human amylin receptor (AMY3) on …
Experiment: cell-based or functional assay

Row | EC50/nM, CRE-luciferase in amylin receptor/CRE-luc CHO cells [nM] | Binder
1 | 0.063 | {C18 diacid-Inp′}-ASQLSTAVLGRLSDELHRLQDYPRTDVGSGSP-NH2 [calcitonin derivative M48]
2 | 0.044 | B1
3 | 0.025 | B2
4 | 0.017 | B3
